The text below walks through data of paper PMC4710668, “Bioactivation of food genotoxicants 5-hydroxymethylfurfural and furfuryl alcohol by sulfotransferases from human, mouse and rat: a comparative study” (Archives of Toxicology, 2014).

Assay in all cases: HMF sulfoconjugation assay
Details in all cases: other: catalytic efficiency of HMF sulfoconjugation; pH 7.4

The subject of data set [1] is T1, O=Cc1ccc(CO)o1.
T1 construct: made in house; host or cells: Salmonella typhimurium TA1538 (cytosolic fraction, not purified)
Format: biochemical, human. The method, then: (§1) Cytosolic fractions containing individual SULT forms were prepared from transgenic S. typhimurium TA1538. Table S1 in the Supplementary Material provides a summary of the thirty SULTs used in the current study together with references describing the cloning of the respective S. typhimurium TA1538 strains. The expressed SULT forms are denoted with the prefixes h, m and r for human, mouse and rat enzymes, respectively. Bacteria were grown in Luria Broth medium containing ampicillin (100 µg/ml) by stirring for 8 h at 200 revolutions/min at 37 °C. The bacterial suspensions were centrifuged at 5,000 g for 10 min. […] The protein concentrations were determined according to a bicinchoninic acid (BCA) assay protocol. […]
(§2) The reactions were conducted in mixtures of 100 µl containing 25–200 µg protein, 50 mM potassium phosphate buffer (pH 7.4), 5 mM MgCl2, 50 µM PAPS and different concentrations of HMF at 37 °C. Preliminary experiments ensured that measurements were recorded under ‘linear’ conditions, i.e., doubling of protein concentration or incubation time was doubling the amount of sulfate ester formed. […]
(§3) SMF concentrations of the clear supernatants were analyzed by UPLC-MS/MS. The protocol was adapted from the quantification of SMF in plasma samples of HMF-treated mice (Monien et al. [2009]). […]

Data set [2] has as its system T2, O=Cc1ccc(CO)o1.
T2 construct: made in house; host or cells: Salmonella typhimurium TA1538 (cytosolic fraction, enzyme not purified)
Format: biochemical, mouse. On the procedure: as §1, §2, §3

Data set [3] deals with T2, O=Cc1ccc(CO)o1. Format: biochemical, rat. On the procedure: as §1, §2, §3

Chain of hSULT1B1 (Homo sapiens) (chain, as listed by the source): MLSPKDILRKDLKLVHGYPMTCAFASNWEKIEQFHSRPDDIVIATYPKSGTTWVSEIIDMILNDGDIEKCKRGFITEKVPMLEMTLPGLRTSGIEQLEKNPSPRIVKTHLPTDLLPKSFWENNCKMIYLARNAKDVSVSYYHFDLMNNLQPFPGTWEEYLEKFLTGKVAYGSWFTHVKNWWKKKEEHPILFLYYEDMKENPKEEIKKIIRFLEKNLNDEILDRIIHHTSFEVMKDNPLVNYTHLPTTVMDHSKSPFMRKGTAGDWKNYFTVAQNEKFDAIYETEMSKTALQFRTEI
Chain of rSult1b1 (Rattus norvegicus) (chain, as listed by the source): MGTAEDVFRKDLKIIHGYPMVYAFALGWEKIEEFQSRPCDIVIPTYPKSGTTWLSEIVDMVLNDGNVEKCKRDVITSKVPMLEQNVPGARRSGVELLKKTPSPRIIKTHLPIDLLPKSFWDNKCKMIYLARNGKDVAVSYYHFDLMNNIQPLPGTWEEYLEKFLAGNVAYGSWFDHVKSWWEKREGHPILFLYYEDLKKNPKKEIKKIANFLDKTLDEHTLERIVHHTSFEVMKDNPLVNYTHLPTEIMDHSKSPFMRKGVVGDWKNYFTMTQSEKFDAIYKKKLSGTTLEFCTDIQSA
Chain of mSult1b1 (Mus musculus) (chain, as listed by the source): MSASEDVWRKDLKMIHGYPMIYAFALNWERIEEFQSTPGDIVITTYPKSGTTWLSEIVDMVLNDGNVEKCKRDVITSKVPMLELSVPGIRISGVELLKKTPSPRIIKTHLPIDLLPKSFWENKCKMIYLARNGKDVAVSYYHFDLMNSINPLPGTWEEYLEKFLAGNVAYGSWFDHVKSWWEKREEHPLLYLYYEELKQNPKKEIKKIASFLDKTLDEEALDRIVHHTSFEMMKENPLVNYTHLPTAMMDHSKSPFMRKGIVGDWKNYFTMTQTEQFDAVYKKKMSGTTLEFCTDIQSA

On to hSULT1B1 (Homo sapiens), for which the kcat/Km in data set [1] stood at 0.31 M⁻¹ s⁻¹. As to mSult1b1 (Mus musculus), the kcat/Km in data set [2] is 0.36 M⁻¹ s⁻¹.

Turning to rSult1b1 (Rattus norvegicus), the kcat/Km in data set [3] is 0.09 M⁻¹ s⁻¹.
